Source: US20250282868A1 (ITEOS BELGIUM, published 2025)

B1: MOR044746 (antibody, V domains shown)
VH: QVQLQQSGPGLVKPSQTLSLTCAISGDSVSSSSAAWNWIRQSPSRGLEWLGHIGYRSKWYNEYAVSVKSRITINPDTSKNQFSLQLNSVTPEDTAVYYCARGMYGSVPYKEGYYFDIWGQGTLVTVSS
VL: DIQMTQSPSSLSASVGDRVTITCRASQGISSDLNWYQQKPGKAPKLLIYAASNLQSGVPSRFSGSGSGTDFTLTISSLQPEDFATYYCQQYTDESMTFGQGTKVEIK
notes: benchmark anti-TREM2 antibody from WO2020079580
B2: EOS006175 (antibody, V domains shown)
VH: QVQLQESGPGLVKPSGTLSLTCAVSGGSISSSNWWSWVRQPPGKGLEWIGEIYHSGSTNYNPSLKSRVTISVDKSKNQFSLKLSSVTAADTAVYYCARDTKYWGGMDVWGQGTTVTVSS
VL: DIQMTQSPSSLSASVGDRVTITCQASQDISNYLNWYQQKPGKAPKLLIYDASNLATGVPSRFSGSGSGTDFTFTISSLQPEDIATYYCQQYVEAPTFGGGTKVEIK

Columns and labels:
human TREM2 [1] = molecular target: T1, human TREM2 (human, UniProt Q9NZC2 19-230); assay: flow cytometry, competition with LDL-Alexafluor-488 on CHO cells overexpressing human TREM2/DAP12; positive control
T1 construct: on THP-1 WT cells and M2a-like macrophages (endogenous) and on CHO or HEK293T cells overexpressing human TREM2 with DAP12; also called hTREM2
T1 sequence: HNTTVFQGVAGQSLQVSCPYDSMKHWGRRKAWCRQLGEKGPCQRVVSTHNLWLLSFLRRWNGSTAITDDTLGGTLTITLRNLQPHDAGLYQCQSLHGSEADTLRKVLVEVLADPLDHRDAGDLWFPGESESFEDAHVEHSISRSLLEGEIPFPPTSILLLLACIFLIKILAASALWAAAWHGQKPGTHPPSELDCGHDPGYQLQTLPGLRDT
Procedure: (§1) Exemplary anti-TREM2 antibodies were tested in order to characterize their ability to enter in competition with TREM2 ligand, LDL, on CHO overexpressing human TREM2/DAP12. Antibodies (dose response curves from 66.65 nM to 0.07 nM) were incubated for 30 min with cells in a soluble fashion, followed by an incubation with LDL coupled with Alexafluor-488 (at 1 μg/mL final) for 30 min. Finally, after 2 washes, cells were acquired on flow cytometer. The median MFI of Alexafluor-488 was used to plot the graphs. Benchmark antibody MOR044746 was used as positive control.

human TREM2 [2] = molecular target: T1, human TREM2; assay: flow cytometry, M2a-like macrophages, dose-response
human TREM2 [3] = molecular target: T1, human TREM2; assay: flow cytometry, M2a-like macrophages
cynomolgus TREM2 [4] = molecular target: T2, cynomolgus TREM2 (cynomolgus, UniProt A0A2K5UY34 49-260); assay: MFI on CHO cells over-expressing cynoTREM2-DAP12
T2 construct: also called cynoTREM2; cTREM2
T2 sequence: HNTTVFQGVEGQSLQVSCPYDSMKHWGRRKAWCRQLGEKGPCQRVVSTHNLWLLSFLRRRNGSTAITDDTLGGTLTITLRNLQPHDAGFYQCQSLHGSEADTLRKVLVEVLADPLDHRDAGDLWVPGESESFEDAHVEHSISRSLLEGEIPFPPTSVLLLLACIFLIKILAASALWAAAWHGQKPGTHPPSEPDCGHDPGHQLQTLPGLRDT
Procedure: (§2) Cross-reactivity of anti-TREM2 antibodies to cynomolgus TREM2 (cynoTREM2) was assessed using CHO over-expressing cynoTREM2-DAP12 (Table 22). Benchmark antibodies, AB52 and PN-37012, were examined for comparison.

mouse TREM2 [5] = molecular target: T3, mouse TREM2 (mouse, UniProt Q99NH8 19-227); assay: MFI on CT26 cells over-expressing mouse TREM2 and DAP12 vs CT26 empty vector
T3 construct: whole, on cells
T3 sequence (looked up): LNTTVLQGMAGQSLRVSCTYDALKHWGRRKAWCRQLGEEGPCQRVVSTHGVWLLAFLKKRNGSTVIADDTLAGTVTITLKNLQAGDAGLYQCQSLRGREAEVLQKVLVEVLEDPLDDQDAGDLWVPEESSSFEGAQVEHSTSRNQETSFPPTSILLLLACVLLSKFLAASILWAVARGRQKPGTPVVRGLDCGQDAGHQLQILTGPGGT

human TREM2 [6] = molecular target: T1, human TREM2; assay: flow cytometry, THP-1 WT cells, 10 ug/ml
mouse TREM2 [7] = molecular target: T3, mouse TREM2; assay: MFI on CT26 cells over-expressing mouse TREM2 and DAP12
human TREM2 [8] = molecular target: T1, human TREM2; assay: flow cytometry, THP-1 WT vs THP-1 TREM2 KO cells, 10 ug/ml
human TREM2 [9] = molecular target: T1, human TREM2; assay: flow cytometry, competition with LDL-Alexafluor-488 on CHO cells overexpressing human TREM2/DAP12; only 1 value generated
Procedure: as §1

human TREM2 [10] = molecular target: T1, human TREM2; assay: cell-based or functional assay
human TREM2 [11] = molecular target: T1, human TREM2; assay: cell-based or functional assay; remark: listed apart in the source
cynomolgus TREM2 [12] = molecular target: T2, cynomolgus TREM2; assay: MFI on CHO cells over-expressing cynoTREM2-DAP12 vs CHO empty vector
Procedure: as §2

Row | Binder | IC50 (human TREM2 [1]) [nM] | Kd (human TREM2 [2]) [nM] | Fold over isotype (human TREM2 [3]) [fold] | Binding to CHO-cTREM2 MFI (cynomolgus TREM2 [4]) [MFI] | MFI Fold change (CT26-TREM2 over CT26-EV) (mouse TREM2 [5]) [fold] | Fold over isotype control THP1 WT (human TREM2 [6]) [fold] | Binding to CT26-TREM2 MFI (mouse TREM2 [7]) [MFI] | MFI Fold change (THP-1 WT over THP-1 TREM2 KO) (human TREM2 [8]) [fold] | IC50 (human TREM2 [9]) [nM] | Fold over isotype control at 66 nM (human TREM2 [10]) [fold] | Stabilization ratio (Mean of 2 replicates) (human TREM2 [11]) [ratio] | MFI Fold change (CHO-cTREM2 over CHO-EV) (cynomolgus TREM2 [12]) [fold]
1 | B1 | 0.395 | – | – | – | – | – | – | – | – | – | – | –
2 | B2 | – | 1.06 | 5.8 | 10200 | 3.9 | 5.5 | 1390 | 5.8 | 0.28 | 0.757 | 0.39 | 233
